Assay results published in patent publication US20080293626A1 (Johns Hopkins, published 2008).

Target: PEDF receptor (unidentified cell surface receptor on bovine retinal capillary endothelial cells)
Assay: cell-based or functional assay

inhibition of VEGF stimulated endothelial cell migration (BRCEC microchemotaxis chamber), IC50: 3 nM
Binder: VLLSPLSVATALSALSLGAEQRTESIIHRALYYDLISSPDIHGT [PEDF 44 AA peptide (residues 78-121 of human PEDF)]
